# T1: N-terminal domain of citrin (human, UniProt Q9UJS0 2-319)
# T1 construct: human citrin N-terminal domain, residues 2-319; In the crystal structure it is joined to the C-terminal domain on one chain; The N-terminal domain of citrin could not be expressed on its own; also called EF-hands 1-8; source: Lactococcus lactis NZ9000, as part of the purified fusion; set free by cleavage with MBP-TEV
# T1 sequence (looked up): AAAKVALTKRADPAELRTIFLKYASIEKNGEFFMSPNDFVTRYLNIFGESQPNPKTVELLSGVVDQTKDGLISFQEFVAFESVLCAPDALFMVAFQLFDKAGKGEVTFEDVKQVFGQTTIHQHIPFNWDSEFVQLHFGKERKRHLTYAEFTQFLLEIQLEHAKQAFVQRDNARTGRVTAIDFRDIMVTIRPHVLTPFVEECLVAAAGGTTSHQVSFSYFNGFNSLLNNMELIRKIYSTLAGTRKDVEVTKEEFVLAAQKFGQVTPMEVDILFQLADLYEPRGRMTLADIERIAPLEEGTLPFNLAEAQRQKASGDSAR
# B1: N-terminal domain of aralar (domain or fragment, human, UniProt O75746 2-311, looked up)
# chain: AVKVQTTKRGDPHELRNIFLQYASTEVDGERYMTPEDFVQRYLGLYNDPNSNPKIVQLLAGVADQTKDGLISYQEFLAFESVLCAPDSMFIVAFQLFDKSGNGEVTFENVKEIFGQTIIHHHIPFNWDCEFIRLHFGHNRKKHLNYTEFTQFLQELQLEHARQAFALKDKSKSGMISGLDFSDIMVTIRSHMLTPFVEENLVSAAGGSISHQVSFSYFNAFNSLLNNMELVRKIYSTLAGTRKDVEVTKEEFAQSAIRYGQVTPLEIDILYQLADLYNASGRLTLADIERIAPLAEGALPYNLAELQRQQ
# notes: human aralar N-terminal domain, residues 2-311; Tag removed with Factor Xa; also called aralar N-terminal domain; regulatory domain of aralar; source: Lactococcus lactis NZ9000, purified (Nickel Sepharose, Factor Xa, SEC); not shown: His8, N-terminal, cleaved
# B2: N- and C-terminal domain fusion of aralar (domain or fragment, human)
# chain: AVKVQTTKRGDPHELRNIFLQYASTEVDGERYMTPEDFVQRYLGLYNDPNSNPKIVQLLAGVADQTKDGLISYQEFLAFESVLCAPDSMFIVAFQLFDKSGNGEVTFENVKEIFGQTIIHHHIPFNWDCEFIRLHFGHNRKKHLNYTEFTQFLQELQLEHARQAFALKDKSKSGMISGLDFSDIMVTIRSHMLTPFVEENLVSAAGGSISHQVSFSYFNAFNSLLNNMELVRKIYSTLAGTRKDVEVTKEEFAQSAIRYGQVTPLEIDILYQLADLYNASGRLTLADIERIAPLAEGALPYNLAELQRQQSPGLGRENLYFQGGLKPAGSEPTPKSRIADLPPANPDHIGGYRLATATFAGIENKFGLYLPKFKSPSVAVVQPKAAVAATQ
# notes: human aralar N-terminal domain, residues 2-317; TEV protease cleavage site that links the two domains in place of the carrier domain; human aralar C-terminal domain, residues 611-678; also called aralar fusion; source: gene codon-optimized for expression in L. lactis; expressed, purified
# B3: N- and C-terminal domain fusion of citrin (domain or fragment, human)
# chain: AAAKVALTKRADPAELRTIFLKYASIEKNGEFFMSPNDFVTRYLNIFGESQPNPKTVELLSGVVDQTKDGLISFQEFVAFESVLCAPDALFMVAFQLFDKAGKGEVTFEDVKQVFGQTTIHQHIPFNWDSEFVQLHFGKERKRHLTYAEFTQFLLEIQLEHAKQAFVQRDNARTGRVTAIDFRDIMVTIRPHVLTPFVEECLVAAAGGTTSHQVSFSYFNGFNSLLNNMELIRKIYSTLAGTRKDVEVTKEEFVLAAQKFGQVTPMEVDILFQLADLYEPRGRMTLADIERIAPLEEGTLPFNLAEAQRQKASGDSARENLYFQGGVKPMGSEPVPKSRINLPAPNPDHVGGYKLAVATFAGIENKFGLYLPLFKPSVSTSKAIGGGP
# notes: human citrin N-terminal domain, residues 2-319; TEV protease cleavage site that links the two domains in place of the carrier domain; human citrin C-terminal domain, residues 613-675; A Factor-Xa cleavage site follows the octa-histidine tag; no tag removal step is described in the purification of this fusion; also called citrin N- and C-terminal fusion protein; regulatory domain of citrin; …
# B4: C-terminal domain of citrin (domain or fragment, human, UniProt Q9UJS0 613-675, looked up)
# chain: GVKPMGSEPVPKSRINLPAPNPDHVGGYKLAVATFAGIENKFGLYLPLFKPSVSTSKAIGGGP
# notes: human citrin C-terminal domain, residues 613-675; residues 632-658 are seen in the structure; In the crystal structure it is joined to the N-terminal domain on one chain; also called C-terminal helix; source: Lactococcus lactis NZ9000, as part of the purified fusion; set free by cleavage with MBP-TEV
# B5: citrin (mitochondrial aspartate/glutamate carrier isoform 2), full-length (natural protein, human, UniProt Q9UJS0 1-675, looked up)
# chain: MAAAKVALTKRADPAELRTIFLKYASIEKNGEFFMSPNDFVTRYLNIFGESQPNPKTVELLSGVVDQTKDGLISFQEFVAFESVLCAPDALFMVAFQLFDKAGKGEVTFEDVKQVFGQTTIHQHIPFNWDSEFVQLHFGKERKRHLTYAEFTQFLLEIQLEHAKQAFVQRDNARTGRVTAIDFRDIMVTIRPHVLTPFVEECLVAAAGGTTSHQVSFSYFNGFNSLLNNMELIRKIYSTLAGTRKDVEVTKEEFVLAAQKFGQVTPMEVDILFQLADLYEPRGRMTLADIERIAPLEEGTLPFNLAEAQRQKASGDSARPVLLQVAESAYRFGLGSVAGAVGATAVYPIDLVKTRMQNQRSTGSFVGELMYKNSFDCFKKVLRYEGFFGLYRGLLPQLLGVAPEKAIKLTVNDFVRDKFMHKDGSVPLAAEILAGGCAGGSQVIFTNPLEIVKIRLQVAGEITTGPRVSALSVVRDLGFFGIYKGAKACFLRDIPFSAIYFPCYAHVKASFANEDGQVSPGSLLLAGAIAGMPAASLVTPADVIKTRLQVAARAGQTTYSGVIDCFRKILREEGPKALWKGAGARVFRSSPQFGVTLLTYELLQRWFYIDFGGVKPMGSEPVPKSRINLPAPNPDHVGGYKLAVATFAGIENKFGLYLPLFKPSVSTSKAIGGGP
# notes: also called SLC25A13; AGC2; source: purified in lauryl maltose neopentyl glycol
# Legend:
# [1] = molecular target: the molecule itself; assay: SEC-MALLS; Superdex 200 10/300 GL; 20 mM Hepes pH 7.5, 150 mM NaCl, 5 mM CaCl2; two-detector method
# [2] = molecular target: T1, N-terminal domain of citrin; assay: SEC; fusion cleaved with MBP-TEV overnight, then Superose 12 10/30 HR; 20 mM Hepes pH 7.5, 150 mM NaCl, 10 mM EGTA (sample E, supplemented with 10 mM EGTA and 10 mM EDTA); peak fractions on Tris-tricine gels; conditions: both partners purified
# [3] = molecular target: the molecule itself; assay: SEC-MALLS; Superose 6 10/300 GL; 20 mM Hepes pH 8.0, 150 mM NaCl, 0.002% (w/v) LMNG, 0.004 mg/ml TOCL; protein-conjugate (three-detector) method
Binder,stoichiometry N [1],also measured
B1,2,
B2,2,
B3,2,
B4,,binding result [2]: binds
B5,,stoichiometry N [3]: 2

# Source: paper PMC4250520, “Calcium-induced conformational changes of the regulatory domain of human mitochondrial aspartate/glutamate carriers” (Nature Communications, 2014)
